Results taken from article PMC6947831, “Mitochondrial localization of Dictyostelium discoideum dUTPase mediated by its N-terminus” (BMC Research Notes, 2020).

B1: core D. discoideum dUTPase (Dictyostelium discoideum) (protein)
chain: FKVKKLSDKAIIPQRGSKGAAGYDLSSAHELVVPAHGKALAMTDLQIAIPDGTYGRIAPRSGLAWKNFIDCGAGVIDSDYRGNVGVVLFNHSDVDFKVAVGDRVAQLIFERIVTPEPLEVDEIDETQRGAGGFGSTGVKVQN
notes: core lacking residues 1-37, N-terminal GSHM from cloning, E. coli, His-tag removed, homotrimer
B2: full-length D. discoideum dUTPase (Dictyostelium discoideum) (protein)
chain: MPIEQKYFSLFSNLFKRLTTNNNNNNYLKMAPPNFETFKVKKLSDKAIIPQRGSKGAAGYDLSSAHELVVPAHGKALAMTDLQIAIPDGTYGRIAPRSGLAWKNFIDCGAGVIDSDYRGNVGVVLFNHSDVDFKVAVGDRVAQLIFERIVTPEPLEVDEIDETQRGAGGFGSTGVKVQN

Legend:
[1] = substrate: O=c1ccn([C@H]2C[C@H](O)[C@@H](COP(=O)(O)OP(=O)(O)OP(=O)(O)O)O2)c(=O)[nH]1; assay: stopped-flow absorbance, proton release with cresol red; type: biochemical, Dictyostelium discoideum; conditions: enzyme 0.15 µM
Source text: stopped-flow absorbance, proton release with cresol red on core D. discoideum dUTPase

[2] = substrate: O=c1ccn([C@H]2C[C@H](O)[C@@H](COP(=O)(O)OP(=O)(O)OP(=O)(O)O)O2)c(=O)[nH]1; assay: as above; type: biochemical, Dictyostelium discoideum; conditions: enzyme 0.15 µM; remark: listed apart in the source
Source text: stopped-flow absorbance, proton release with cresol red on full-length D. discoideum dUTPase

| Protein | Km [1] | Vmax [1] | kcat [1] | kcat/Km [1] | Km [2] | Vmax [2] |
| --- | --- | --- | --- | --- | --- | --- |
| B1 | 0.5 ± 0.1 µM | 84 µM/min | 9.3 s⁻¹ | 1.86e+07 M⁻¹ s⁻¹ | – | – |
| B2 | – | – | – | – | 1.0 ± 0.2 µM | 30 µM/min |
